This data set is described as follows: label from the status in PepcDB records.
Turning to “MTENGRYEYIVIGSEAAGVGLVRELTAAGKKVLAVDKSKEKIELLEDEGFDAVIADPTDESFYRSLDLEGVSAVLITGSDDEFNLKILKALRSVSDVYAIVRVSSPKKKEEFEEAGANLVVLVADAVKQAFMDKIKKMETLKKIEKLKRIMESLRGKRLGIFTHDNPDPDSMSSAYALREIAKQFDVIADILYYGEILHQKNRAMVNLLEIPMIRAPEVDLSHYDAFAIVDSSGPGVNNSIPPDIDISIVIDHHPAEKVVAEFVDLREDVGATATILTEYIKELKITPSKILATALFFGIKSETDEFKRNTRTADFLACAFLYPFVDQDLIEKIESPSISTETLDILGTAIKNRQVYSSFLISFAGFINDRDALPQAADFLLKLEGISTVVVFGVIKDTVYVSARNKDVRIHMGEVLRRAFGDVGSAGGHAHAAGAQIPLGIFGETNEKDLLAKLITEAITKRLLSAVGMEQS”, the protein production result is “failed”. For “MTENTFTDPSWLRLSCFIGVLLLCNLWENKLPRKTLTVKRSFRWLNNLSLVALNSAIIALVMPIAAFQAAAIAHDQQWGLFNLLSLPGWLNVLLAVIVLDLIIYVQHLVFHRVKPLWKIHRMHHADLDIDVTTGARFHPIEIIISMVVKITSVFILGVSPLAIVVFEIILNASAMFNHSNAKLALSIDKKLRKVIVTPDMHRVHHSVMVKETHSNFGFFLSVWDRWFGTYRAQPALGHNDVVIGVPEIREASEQRLDKLLTQPFRYREGKGKNVD”, the protein production entry is “not failed”.

In the case of “MTEPEGYRRFLQLVAHEFFHLWNVKRIRPKALEQFDYEAENYTPSLWFSEGATSYYDLLLPLRAGLYGVDSFLEALGKDLSRYLTTPGRKVQPLAESSFDAWVKLYRRDAYSDNQQMSYYLKGQLVCWLLDLEIRNHQPDLEHHHHHH”, the protein production result is on record as “failed”.

Take “MTEPYAVPVPRGYRVGVWEVHAPIATGAFGSVYAARRTGGDDTKASPTRPGGDDNTKAPPTRPGGDGTGHRPSRPGTTDTAGTDDSHGTGTGTGTGTPSRAQTDTAHPAEGDTDDPGHTSGNGTTGTDGTRRSHGTGTGTPSRAHTDTAHPAEGDTDNPGHTSGNGTTGTDGTGRSHGTGTGTGTHNPSRVQTGAAHPAKGDTDNPGRTGGDGTARRPGRAGVVGAGRGGDAGGEVPDTVALKFLPTGTGTPRQLAHLRDLVEREVELLRRLRRPRLIRMYETLTVDDPAHPRLDGATVLVLERAEGSLSALLAATPRPPAGPALLAQVCEGLQQLHRAGWVHGDLKPANVLLMADGSARLADFNMAAELEGTHAYTPAFATPDYTPPELLWSEIGERGRRIRPSADVWAFGVLAHLVLTGSFPLPGGTPTARRDAAVAYARGGHELRLSPEPPPGWREIVRACLTRTHADRIGTDALLRRVTGTTEGASGGAGFSPRTRARPRRRVLAALAAGLLALAALGYGVARWAGDGREPAAGPRPGGTGSVAAASYGAAELRTDRDVPPAYRLLIVETAHDCDREEVSPALIAAMLKVESDFDPDLADPAKDEYGIARWTPSVLRWWMNEDGTPGETVPQPPFPPAESVPAMGRYLCWIAPRLDAGLPGDRSVLVAVAYRTSYRKVNDAGGVPPKYRDYADRVAHHLKEYTPRRGK”: the protein production entry was “failed”.

On to “MTEQERLELEAAAFRRLVAHLDSRKDVQNIDLMNLSGFCRNCLSKWYKAAADEKHIDITLDDAREVVYGMPYSEWKANYQKEASAEQQAAFVKESKHD”, for which the protein production result is “not failed”. Then “MTERKLVAERNFEVNGYDIDAMGIVSNIVYIRWFEDLRTDFINQYMPYSDMMNQQISPILMNTEAEYKTPITIHDKPVGRCYLVKASKLRWEFEFEIESEDAVHCIGKQSGTFFDLQKKKVTRLPEVFQTILSLEHHHHHH”, with “failed”.

For “MTERSDYSIRIMSRQEIGMAVDWAAEEGWNPGLHDADCFHAADPEGFLTGLLGNEPVATISVVRYGTAFGFLGFYIVRPKYRGMGFGLKIWNAGLEQLKGRTIGLDGVVAQQENYAKSGFILAYRNIRVKGSGGGKIPAHEGIKPLVELPFETLLTYDSLFFPEERRTFLECWINQRESSSLGIIENNRLSGYGVIRTCRSGSKIGPLFADRADLAEELFCALKASAPEGSPLFLDIPEVNPEAVKLAQRHNMTVVFETSRMYQGNIPELPLGNIYGVTTFELG”, the protein production result is “failed”.

Consider “MTERSFEGSAYSDYRSSHQKPGYGTDYAETFRSGYYAALWSRIERPLVEGILSPLGGPGRSCLDFACGTGRVAAVAGPLFGEVVGVDVSRSMLACARVPGNVKLVEADLTVAPLSRRFDVVTAFRFFLNAEDTLKRDALSAIHEHLNDGGLLVSNVHMNATSPMGLACRFLNRFQGRVVRSTLSIHAYRQMLVSNGFVVESVIGYGFLPRPGWLLPRLCETLVGPVETICRRAGVPGRFAQNFLVVARKQ”, for which the protein production result is “failed”.

As for “MTESDRDQEASMREVVIVKSTPQRGKFNAFAELVGKLVSETRDFPGCLGAYLMLAPERNEQVVMHIWETPDALEAYLTWRADRGDFLEINEYLEVEQDFKTYQLA”, the protein production entry is recorded as “not failed”. Then “MTETGDDLATVKKPIPFLVIFKDLRHVFSRDTTGREILGIAFPAALALAADPIASLIDTAFVGRLGAVQLAAVGVSIAIFNQASRITIFPLVSLTTSFVAEEDTMEKMKEEANKANLVHAETILVQDSLEKGISSPTSNDTNQPQQPPAPDTKSNSGNKSNKKEKRTIRTASTAMILGLILGLVQAIFLIFSSKLLLGVMGVKPNSPMLSPAHKYLSIRALGAPALLLSLAMQGIFRGFKDTKTPLFATVVADVINIVLDPIFIFVLRLGIIGAAIAHVISQYFMTLILFVFLAKKVNLIPPNFGDLQFGRFLKNGLLLLARTIAVTFCQTLAAAMAARLGTTPMAAFQICLQVWLTSSLLNDGLAVAGQAILACSFAEKDYNKVTAVASRVLQMGFVLGLGLSVFVGLGLYFGAGVFSKDPAVIHLMAIGIPFIAATQPINSLAFVLDGVNFGASDFAYTAYSMVGVAAISIAAVIYMAKTNGFIGIWIALTIYMALRAITGIARMATGTGPWRFLRGRSSSSSS”, with “failed”; and “MTETHQQLMKLPVNQVFFKYFVPATLGLILMSANILIDGLFVGNGIGTAALAGVNLSYPVISLIMAIALWIGIGGATKYSISIGENRPKKASSIFSLALFLALIISVLLGVFGILNIQTISIWLGANSDTSSFVIEYLSVMFLFGWVITLEQVLSIFVRNDGSPKLSMMALATTSIVNIILNFYTIMILDMGVTGAAISTVLGGFAGLLVLSLHFFNRQAQLRRPAFQWSWKSLMHIFAIGFPSFLAEAGLLVFVTGYNLAMASLAGTEGVAAFSVINYLHGFMFLSFFGIEMALQPMISYYHGAEETEQIKSSMKIGEKTAVILGILLLVIGWGAAPFLVGLFGIESTEIQQLAIDGIRLFFIGYTFLGYNFVYMSYFQSIGRAGSSVVIIILRSFVSLFILLWILPKFIGVTGVWLSLPLSEFFVAVLLFFIARKHVMGKGNPAIGKG”, with “failed”. Then “MTETKPRIAIRYCTQCNWLLRAGWMAQEILQTFASDIGEVSLIPSTGGLFEITVDGTIIWERKRDGGFPGPKELKQRIRDLIDPERDLGHVDRTKHEGLDTLEHHHHHH”, with “not failed”. On to “MTEVAHTASGSTNTMDREGLPVAETTCAPGLPLWARPEARTALGDTLRPGGFSLTDRLATLAGVHPGWRVLDVGCGTGATVLHLRQRYGASAFGCDRSTSLTPGSNNHKGLPVIAADAANLPFADGSMKMVFCECVLSLLVKPLEVLRGLRRLLVPGGLLGVSDLYLRGEGHARVTEGSCLAWQATRMRIESLLHEAGFALHTFEDHSPLLRETAARLALSGALHGGAMNCGERAFPSRDACRRCSPEGIAAPPQATPCSMTECSFSPPATRAVTEQVARPGYFLLLAQSLKGTRED”, for which the protein production entry is “failed”.
